The Kd is the equilibrium constant for the complex coming apart. Read a high Kd as a looser complex.

From paper PMC5100589 come the findings set out here.

The target of one series is GST-YY1(F1-4) (human, UniProt P25490 292-414). Description: competition.
The target of another series is YY1(F1-4) (human, UniProt P25490 292-414). Description: MST.
A further series concerns the target YY1(F1-4) R323A (human, UniProt P25490 292-414, R323A). As to the kind of experiment: EMSA.
The target in a further series is YY1(F1-4) Q344A (human, UniProt P25490 292-414, Q344A). As to the kind of experiment: EMSA. A general note: In EMSA bound probe runs differently from free probe, usually more slowly.
YY1(F1-4) Q344A, sequence (P25490 292-414 Q344A): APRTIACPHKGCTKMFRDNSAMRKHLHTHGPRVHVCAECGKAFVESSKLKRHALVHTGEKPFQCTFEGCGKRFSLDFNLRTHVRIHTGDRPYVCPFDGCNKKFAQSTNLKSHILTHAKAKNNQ
The target of another series is YY1(F1-4) H325A (human, UniProt P25490 292-414, H325A). Description: EMSA.
YY1(F1-4) H325A, sequence (P25490 292-414 H325A): as the sequence (P25490 292-414 Q344A) above, with H34A, A53Q counted along it
Another series deals with YY1(mut5) (human, UniProt P25490 292-414, V324A;H325A;V326A;L340A;Q344A). As to the kind of experiment: MST.
YY1(mut5), sequence (P25490 292-414 V324A/H325A/V326A/L340A/Q344A): as the sequence (P25490 292-414 Q344A) above, with V33A, H34A, V35A, L49A counted along it

YY1(F1-4), sequence (P25490 292-414): as the sequence (P25490 292-414 Q344A) above, with A53Q counted along it
YY1(F1-4) R323A, sequence (P25490 292-414 R323A): as the sequence (P25490 292-414 Q344A) above, with R32A, A53Q counted along it
GST-YY1(F1-4), sequence (P25490 292-414): as the sequence (P25490 292-414 Q344A) above, with A53Q counted along it

B1: AAV P5 dsDNA (dsDNA)
DNA 1: AGGGTCTCCATTTTGAAGCG
DNA 2: CGCTTCAAAATGGAGACCCT
For B1, the binding result with GST-YY1(F1-4) is listed as “binds”.

Consider AGGCGAUGGUGAGC (ssRNA) [m2 RNA], for which the dissociation constant (Kd) was found to be 3.8 ± 0.6 µM with YY1(F1-4) and 31 ± 9 µM with YY1(mut5). Further, the binding result with YY1(F1-4) R323A, with YY1(F1-4) Q344A and with YY1(F1-4) H325A was “binds” in each case.

On to AAAAAAAAAAAAAA (ssRNA) [poly(A) RNA], for which, in the series with YY1(F1-4), binding was characterised by a dissociation constant (Kd) of 4.2 ± 0.5 µM.
